Measurements as given in publication PMC4743925, “Targeting an Essential GTPase Obg for the Development of Broad-Spectrum Antibiotics” (PLoS ONE, 2016).

Substrate: Nc1nc2c(ncn2[C@@H]2O[C@H](COP(=O)(O)OP(=O)(O)OP(=O)(O)O)[C@@H](O)[C@H]2O)c(=O)[nH]1
Test: BIOMOL Green (malachite green) phosphate release
Assay type: biochemical, Neisseria gonorrhoeae
Settings: 5 μM protein, 10-1000 μM GTP, 6 h, 37 °C, pH 8.0, 10 mM MgCl2, 50 mM KCl

B1: ObgGC (Neisseria gonorrhoeae FA 1090) (protein)
chain: MKFIDEAKIEVAAGKGGNGATSFRREKFVPRGGPDGGDGGKGGSVWAEADENTNTLVEYRFVKRYQAKNGEKGHGSDRYGAGADDIVLKMPVGTLIRDLDTDEIVADLTYHGQRVCLAKGGKGGLGNIHFKSSVNRAPKQSTPGEEGETRSLQLELKVLADVGLLGMPNAGKSTLITAVSAARPKIANYPFTTLHPNLGVVRIDENHSFVMADIPGLIEGAAEGAGLGHRFLKHLSRTGLLLHVVDLAPFDETVNPAEEALAIINELRKYDEELYGKPRWLVLNKLDMLDEEEARARTAAFLEAVGWDYPEPDDRFQFDMETPRLFQISALTHQGTQELVHQINQYLAEKKRIEAEKAEAEKAAANVEIIEQQPKTDTGVFKPE
notes: full-length with C-terminal 6xHis tag, expressed in E. coli BL21(DE3), IMAC and size exclusion; tag not reported cut
Protein B1 has a Km of 78.76 µM.
